Reference: patent US20230203146A1 (Boehringer Ingelheim, published 2023)
Like-named read-outs stand apart in the source and are kept apart here.

T1: FLAG-tagged cynomolgus Ang2 (cynomolgus, UniProt O15123 19-496 (human entry), limits assumed)
T1 construct: N-terminally FLAG-tagged, conditioned medium of HEK293T cells; also called cAng2; FLAG-cAng2
T1 chain: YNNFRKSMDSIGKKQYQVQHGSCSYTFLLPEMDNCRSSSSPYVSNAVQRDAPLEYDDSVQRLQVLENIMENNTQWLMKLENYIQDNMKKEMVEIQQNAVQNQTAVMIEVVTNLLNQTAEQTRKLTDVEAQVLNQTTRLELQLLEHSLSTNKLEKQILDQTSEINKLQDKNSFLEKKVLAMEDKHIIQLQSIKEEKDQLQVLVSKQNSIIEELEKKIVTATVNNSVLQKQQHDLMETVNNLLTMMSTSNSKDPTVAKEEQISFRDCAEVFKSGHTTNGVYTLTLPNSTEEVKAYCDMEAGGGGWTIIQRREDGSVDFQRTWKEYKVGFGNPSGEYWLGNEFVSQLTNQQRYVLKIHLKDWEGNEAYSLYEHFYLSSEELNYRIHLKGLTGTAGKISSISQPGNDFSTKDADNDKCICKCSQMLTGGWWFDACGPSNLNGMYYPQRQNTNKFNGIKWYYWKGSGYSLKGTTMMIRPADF

T2: FLAG-tagged mouse Ang2 (mouse, UniProt O35608 19-496)
T2 construct: N-terminally FLAG-tagged, conditioned medium of HEK293T cells; also called mAng2; FLAG-mAng2
T2 sequence: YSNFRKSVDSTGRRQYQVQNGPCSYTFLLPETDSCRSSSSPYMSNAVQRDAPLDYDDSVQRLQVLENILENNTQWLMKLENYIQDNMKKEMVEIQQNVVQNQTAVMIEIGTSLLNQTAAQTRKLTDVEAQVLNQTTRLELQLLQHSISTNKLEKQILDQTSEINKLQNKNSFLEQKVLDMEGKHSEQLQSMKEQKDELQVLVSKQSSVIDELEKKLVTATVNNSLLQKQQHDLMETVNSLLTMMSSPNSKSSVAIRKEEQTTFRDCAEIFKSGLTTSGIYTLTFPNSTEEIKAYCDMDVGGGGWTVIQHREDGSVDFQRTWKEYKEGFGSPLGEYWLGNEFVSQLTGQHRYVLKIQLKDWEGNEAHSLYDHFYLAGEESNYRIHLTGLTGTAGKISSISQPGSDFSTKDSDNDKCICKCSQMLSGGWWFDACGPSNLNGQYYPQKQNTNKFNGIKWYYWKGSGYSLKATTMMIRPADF

T3: FLAG-tagged recombinant human Ang1 (Alexis Biochemicals) (human, UniProt Q15389 20-498, limits assumed)
T3 construct: Bought reagent; also called hAng1; FLAG-hAng1
T3 sequence (looked up): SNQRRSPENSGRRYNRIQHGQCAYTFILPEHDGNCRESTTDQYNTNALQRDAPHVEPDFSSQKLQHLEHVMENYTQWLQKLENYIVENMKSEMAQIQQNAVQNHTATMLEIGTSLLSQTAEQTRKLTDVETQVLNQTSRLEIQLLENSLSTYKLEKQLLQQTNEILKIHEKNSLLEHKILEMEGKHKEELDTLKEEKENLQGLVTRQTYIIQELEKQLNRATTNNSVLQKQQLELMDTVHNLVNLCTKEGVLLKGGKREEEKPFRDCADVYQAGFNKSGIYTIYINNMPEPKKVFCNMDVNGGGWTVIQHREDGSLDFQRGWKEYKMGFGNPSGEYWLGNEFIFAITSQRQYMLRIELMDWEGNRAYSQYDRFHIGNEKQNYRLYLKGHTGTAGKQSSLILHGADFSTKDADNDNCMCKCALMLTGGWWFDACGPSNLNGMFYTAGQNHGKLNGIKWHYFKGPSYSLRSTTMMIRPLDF

B1: VHH 00042 (VHH, not shown: small tags and cut ends)
VHH: EVQLVESGGGLVQPGGSLRLSCAASGFTLDDYAIGWFRQAPGKEREGVSSIRDNDGSTYYADSVKGRFTISSDNSKNTVYLQMNSLRPEDTAVYYCAAVPAGRLRFGEQWYPLYEYDAWGQGTLVTVSS
B2: VHH 12A08 (VHH)
VHH: EVQLVESGRGLVQAGGSLRLSCAASGSIFSINAMLWYRQAPGKQRELVAAITSGGSTNYADSVKGRFTISRDNAKNTVYLQMNSLKPEDTAVYYCAADSDYSSDYYYWGQGTQVTVSS
notes: Tested as periplasmic extract; also called 012A08; not shown: C-terminal c-myc tag and His6 tag
B3: VHH 25B01 (VHH)
VHH: EVQLVESGGGLVQAGGSLRLSCAASGFTFDDYAIGWFRQAPGKEREGVSCISSSDGSTYYADSVKGRFTISSDNAKNTVYLQMNSLKPEDTAVYYCAAAWGASRLPIGTMPPYEYDYWGQGTQVTVSS
notes: Tested as periplasmic extract; also called 025B01; not shown: C-terminal c-myc tag and His6 tag
B4: VHH 1E01 (VHH)
VHH: EVQLVESGGGLVQPGGSLRLSCVHSGTISSTHAMGWYRQAPGKQREHVATFTNRGSTYYAGSVKGRFTISRDNAKNTMYLQMNSLKPEDTAVYYCNTGPYWGQGTQVTVSS
notes: Tested as periplasmic extract; also called 001E01; not shown: C-terminal c-myc tag and His6 tag

How the values were obtained:
[1] = biological target: T1, FLAG-tagged cynomolgus Ang2; assay: competition ELISA: FLAG-cAng2 binding to coated cTie2-Fc
FLAG-tagged mouse Ang2 [2] = biological target: T2, FLAG-tagged mouse Ang2; assay: competition ELISA: FLAG-mAng2 binding to coated mTie2-Fc
Protocol: (§1) In brief, 2 μg/mL of recombinant mouse Tie2-Fc or cyno Tie2-Fc is coated overnight at 4° C. in a 96-well MaxiSorp plate (Nunc, Wiesbaden, Germany). Coated wells are blocked with a 1% casein solution.

[3] = biological target: T1, FLAG-tagged cynomolgus Ang2; assay: competition ELISA: FLAG-cAng2 binding to coated cTie2-Fc
Protocol: as §1

FLAG-tagged mouse Ang2 [4] = biological target: T2, FLAG-tagged mouse Ang2; assay: competition ELISA: FLAG-mAng2 binding to coated mTie2-Fc; remark: listed apart in the source
Protocol: as §1

[5] = biological target: T3, FLAG-tagged recombinant human Ang1 …; assay: competition ELISA, periplasmic extract, FLAG-hAng1 on hTie2/Fc
Protocol: In brief, human Tie2/Fc chimera (R&D Systems, Minneapolis, Minn., USA) is biotinylated using N-hydroxysulfosuccinimide ester of biotin (Thermo Fisher Scientific, Rockford, Ill., USA). […] To this mixture, the Acceptor beads and 0.3 nM biotinylated human Tie2/Fc chimeras are added and further incubated for 2 hours at room temperature. Finally, streptavidin conjugated Donor beads (Perkin Elmer, Waltham, Mass., US) are added and the mixture is incubated for an additional 2 hours at room temperature. Assay buffer is PBS+0.03% Tween-20+0.1% BSA. Fluorescence is measured using the Envision Multilabel Plate reader (Perkin Elmer, Waltham, Mass., USA) using an excitation wavelength of 680 nm and an emission wavelength of 520 nm. […] In brief, human or mouse Tie2/Fc chimera (R&D Systems, Minneapolis, Minn., USA) are immobilized at 2 μg/mL overnight at 4° C. in a 96-well MaxiSorp plate (Nunc, Wiesbaden, Germany). Wells are blocked with a 1% casein solution. […] This mixture is added to the Tie2/Fc coated well and incubated for 2 hours at room temperature. Residual binding of Ang is detected using HRP-conjugated anti-FLAG M2 antibody (Sigma, St Louis, Mo., USA).

Binder	IC50 [1]	IC50 (FLAG-tagged mouse Ang2 [2])	IC50 [3]	IC50 (FLAG-tagged mouse Ang2 [4])	% inh [5]
B1	0.753 nM	1.91 nM	0.8 nM	1.9 nM	–
B2	–	–	–	–	3%
B3	–	–	–	–	4%
B4	–	–	–	–	4%
